The record followed here is PMC6082395 (Journal of molecular biology, 2018).

To fix the notation:
B1: human WT c-Myb TAD (residues 275–327) (domain or fragment, UniProt P10242 275-327, looked up)
chain: PAAAAIQRHYNDEDPEKEKRIKELELLLMSTENELKGQQVLPTQNHTCSYPGW
B2: c-Myb TAD L300A (domain or fragment, human, UniProt P10242 275-327, looked up)
chain: PAAAAIQRHYNDEDPEKEKRIKELEALLMSTENELKGQQVLPTQNHTCSYPGW
B3: c-Myb TAD S304A (domain or fragment, human, UniProt P10242 275-327, looked up)
chain: PAAAAIQRHYNDEDPEKEKRIKELELLLMATENELKGQQVLPTQNHTCSYPGW
B4: c-Myb TAD S304G (domain or fragment, human, UniProt P10242 275-327, looked up)
chain: PAAAAIQRHYNDEDPEKEKRIKELELLLMGTENELKGQQVLPTQNHTCSYPGW
B5: c-Myb TAD P289A/P316A (domain or fragment, human, UniProt P10242 275-327, looked up)
chain: PAAAAIQRHYNDEDAEKEKRIKELELLLMSTENELKGQQVLATQNHTCSYPGW
B6: c-Myb TAD E292D (domain or fragment, human, UniProt P10242 275-327, looked up)
chain: PAAAAIQRHYNDEDPEKDKRIKELELLLMSTENELKGQQVLPTQNHTCSYPGW
B7: c-Myb TAD K296H (domain or fragment, human, UniProt P10242 275-327, looked up)
chain: PAAAAIQRHYNDEDPEKEKRIHELELLLMSTENELKGQQVLPTQNHTCSYPGW
B8: c-Myb TAD G311A (domain or fragment, human, UniProt P10242 275-327, looked up)
chain: PAAAAIQRHYNDEDPEKEKRIKELELLLMSTENELKAQQVLPTQNHTCSYPGW
B9: c-Myb TAD N307V (domain or fragment, human, UniProt P10242 275-327, looked up)
chain: PAAAAIQRHYNDEDPEKEKRIKELELLLMSTEVELKGQQVLPTQNHTCSYPGW
B10: c-Myb TAD L300V (domain or fragment, human, UniProt P10242 275-327, looked up)
chain: PAAAAIQRHYNDEDPEKEKRIKELEVLLMSTENELKGQQVLPTQNHTCSYPGW
B11: c-Myb TAD P289A (domain or fragment, human, UniProt P10242 275-327, looked up)
chain: PAAAAIQRHYNDEDAEKEKRIKELELLLMSTENELKGQQVLPTQNHTCSYPGW
B12: c-Myb TAD N307A (domain or fragment, human, UniProt P10242 275-327, looked up)
chain: PAAAAIQRHYNDEDPEKEKRIKELELLLMSTEAELKGQQVLPTQNHTCSYPGW
B13: c-Myb TAD L300G (domain or fragment, human, UniProt P10242 275-327, looked up)
chain: PAAAAIQRHYNDEDPEKEKRIKELEGLLMSTENELKGQQVLPTQNHTCSYPGW
B14: c-Myb TAD K293H (domain or fragment, human, UniProt P10242 275-327, looked up)
chain: PAAAAIQRHYNDEDPEKEHRIKELELLLMSTENELKGQQVLPTQNHTCSYPGW
B15: c-Myb TAD S304P (domain or fragment, human, UniProt P10242 275-327, looked up)
chain: PAAAAIQRHYNDEDPEKEKRIKELELLLMPTENELKGQQVLPTQNHTCSYPGW
B16: c-Myb TAD N307G (domain or fragment, human, UniProt P10242 275-327, looked up)
chain: PAAAAIQRHYNDEDPEKEKRIKELELLLMSTEGELKGQQVLPTQNHTCSYPGW
B17: c-Myb TAD N307P (domain or fragment, human, UniProt P10242 275-327, looked up)
chain: PAAAAIQRHYNDEDPEKEKRIKELELLLMSTEPELKGQQVLPTQNHTCSYPGW
B18: c-Myb TAD L300P (domain or fragment, human, UniProt P10242 275-327, looked up)
chain: PAAAAIQRHYNDEDPEKEKRIKELEPLLMSTENELKGQQVLPTQNHTCSYPGW
B19: c-Myb TAD S304V (domain or fragment, human, UniProt P10242 275-327, looked up)
chain: PAAAAIQRHYNDEDPEKEKRIKELELLLMVTENELKGQQVLPTQNHTCSYPGW

This experiment deals with KIX domain of human CBP (residues 586–672) (human, UniProt Q92793 586-672). The experiment is described as follows: ITC.
KIX domain of human CBP (residues 586–672), sequence (Q92793 586-672): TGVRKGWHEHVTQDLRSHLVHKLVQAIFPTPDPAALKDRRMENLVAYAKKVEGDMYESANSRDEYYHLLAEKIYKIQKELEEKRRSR
Turning to B1, the Kd came out at 500 ± 30 nM and the dH was -10.5 ± 0.4 kcal/mol.

B2 gave an equilibrium dissociation constant (Kd) of 670 ± 80 nM and a dH of -9.26 ± 0.39 kcal/mol.

Regarding B3, binding was characterised by a dissociation constant (Kd) of 380 ± 40 nM and the dH was -6.94 ± 0.51 kcal/mol.

In turn, B4 showed an equilibrium dissociation constant (Kd) of 710 ± 130 nM and a dH of -13.3 ± 2.69 kcal/mol.

Molecule B5 showed a dissociation constant (Kd) of 530 ± 20 nM and a dH of -9.81 ± 0.1 kcal/mol.

B6 registered a Kd of 630 ± 20 nM and a dH of -11.22 ± 0.05 kcal/mol.

Consider B7, for which the Kd turned out to be 870 ± 50 nM and the dH is -13.8 ± 0.48 kcal/mol.

On to B8, for which the Kd worked out at 460 ± 30 nM and the dH was -10.1 ± 0.26 kcal/mol.

Take B9: the Kd worked out at 390 nM and the dH was -8.44 ± 0.04 kcal/mol.

With B10, binding was characterised by a dissociation constant (Kd) of 820 ± 50 nM and the dH was -11.38 ± 0.11 kcal/mol.

Turning to B11, the equilibrium dissociation constant (Kd) was 620 ± 20 nM and the dH was -10.2 ± 0.27 kcal/mol.

On to B12, for which binding was put at a Kd of 410 ± 70 nM and the dH was -8.29 ± 0.6 kcal/mol.

In turn, B13 yielded a Kd of 2240 ± 20 nM and a dH of -11.33 ± 0.04 kcal/mol.

In turn, B14 came in with an equilibrium dissociation constant (Kd) of 780 ± 60 nM and a dH of -11.1 ± 2.1 kcal/mol.

For B15, the affinity, expressed as Kd, was 3450 ± 500 nM and the dH was -7.35 ± 0.97 kcal/mol.

For B16, the affinity, expressed as Kd, was 610 ± 40 nM and the dH was -9.26 ± 0.23 kcal/mol.

The molecule B17 came in with a Kd of 950 ± 70 nM and a dH of -8.97 ± 0.32 kcal/mol.

Consider B18, for which the Kd came out at 290000 ± 101000 nM and the dH was -1.34 ± 0.29 kcal/mol.

The molecule B19 yielded a Kd of 1490 ± 290 nM and a dH of -8.39 ± 0.93 kcal/mol.
